{"source": "paper PMC2844702", "about": "(Chemistry & biology, 2009)", "key": {"TrkB [1]": {"target": "TrkB", "type": "binding"}, "TrkB [2]": {"target": "TrkB (UniProt Q16620)", "sequence (Q16620 32-430)": "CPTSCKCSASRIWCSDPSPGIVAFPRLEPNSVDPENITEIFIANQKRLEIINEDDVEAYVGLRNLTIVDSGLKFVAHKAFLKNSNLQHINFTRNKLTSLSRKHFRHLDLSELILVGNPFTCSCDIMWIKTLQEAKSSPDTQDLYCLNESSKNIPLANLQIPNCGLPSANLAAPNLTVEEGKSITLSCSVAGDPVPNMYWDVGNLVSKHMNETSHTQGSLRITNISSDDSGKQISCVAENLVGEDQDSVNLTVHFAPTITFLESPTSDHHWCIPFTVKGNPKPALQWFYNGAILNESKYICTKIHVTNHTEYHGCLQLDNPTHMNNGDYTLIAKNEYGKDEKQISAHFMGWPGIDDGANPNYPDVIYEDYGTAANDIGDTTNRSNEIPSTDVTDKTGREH", "details": "cited from earlier work"}, "TrkA": {"target": "TrkA (UniProt P04629)", "details": "cited from earlier work"}, "TrkA 97-120": {"target": "TrkA 97-120 (UniProt P04629)", "details": "cited from earlier work"}}}
{"compound": "CN(C)CCC=C1c2ccccc2CCc2ccccc21", "note": "[amitriptyline]", "values": [{"measurement": "Kd", "setting": "TrkB [1]", "value": "~14000", "unit": "nM"}]}
{"compound": "BDNF (from UniProt P23560)", "values": [{"measurement": "Kd", "setting": "TrkB [2]", "value": 1, "unit": "nM"}]}
{"compound": "NGF (from UniProt P01139)", "values": [{"measurement": "Kd", "setting": "TrkA", "value": 1, "unit": "nM"}, {"measurement": "Kd", "setting": "TrkA 97-120", "value": 1.3, "unit": "nM"}]}
